The results in this text go back to paper PMC6891085.

Where two headings read alike, the source gives them in different places. Some results are limits rather than exact numbers.

Common to all, as to test: co-sedimentation
In experiment [1] the target is taxol-stabilized microtubules (MTs) of porcine brain tubulin (porcine) (UniProt P02550).
For experiment [2], the target named is subtilisin-treated MTs (s-MTs) (porcine) (UniProt P02550).
Experiment [3] has as its target taxol-stabilized microtubules (MTs) of porcine brain tubulin (porcine) (UniProt P02550). The source holds these as a separate data set.

Chain of UniProt P02550 (P02550 whole entry): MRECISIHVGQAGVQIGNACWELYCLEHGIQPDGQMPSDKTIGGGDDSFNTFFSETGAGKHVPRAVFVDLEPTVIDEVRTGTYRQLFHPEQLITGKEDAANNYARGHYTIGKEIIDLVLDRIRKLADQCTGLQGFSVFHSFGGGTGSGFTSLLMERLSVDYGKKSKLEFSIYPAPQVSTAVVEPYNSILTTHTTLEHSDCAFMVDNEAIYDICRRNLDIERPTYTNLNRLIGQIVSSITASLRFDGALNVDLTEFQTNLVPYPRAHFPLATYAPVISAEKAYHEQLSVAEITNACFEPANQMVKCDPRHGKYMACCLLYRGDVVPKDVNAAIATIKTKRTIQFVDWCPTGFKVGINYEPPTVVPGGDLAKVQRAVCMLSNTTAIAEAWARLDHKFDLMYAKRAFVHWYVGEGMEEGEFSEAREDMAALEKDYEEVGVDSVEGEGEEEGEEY

A word on the Kd: it is the concentration at which binding is half-saturated. Low values mean tighter binding, high ones weaker binding. In the case of “Abl2 with MBP cleaved off (from UniProt Q4JIM5 74-1182) (enzyme)”, in experiment [1], the Kd worked out at 170 nM.
Consider “Abl2-557-C (from UniProt Q4JIM5 557-1182) (domain or fragment)”, for which, in experiment [1], the Kd is 700 nM.
In experiment [1], “Abl2-N-688 (from UniProt Q4JIM5 74-688) (domain or fragment)” had a Kd of 240 nM.
In the case of “MBP-tagged Abl2 (from UniProt Q4JIM5 74-1182) (enzyme)”, the Kd in experiment [1] is 210 nM; in experiment [2] it was greater than 3000 nM; in experiment [3], 360 nM.
Regarding “MBP-tagged Abl2-557-688 (from UniProt Q4JIM5 557-688) (domain or fragment)”, the equilibrium dissociation constant (Kd) in experiment [1] worked out at 1300 nM.
